Paper PMC2865030

Legend:
Assay in all cases: ITC
[1] = target: yeast Hsp90 M705V (His-tagged) (yeast) (UniProt P02829)
[2] = target: yeast Hsp90 (wild type, His-tagged) (yeast) (UniProt P02829)
[3] = target: C-terminal domain of yeast Hsp90 (yeast)

B1: Tah1 (TPR-containing protein associated with Hsp90) (natural protein)
chain: MSQFEKQKEQGNSLFKQGLYREAVHCYDQLITAQPQNPVGYSNKAMALIKLGEYTQAIQMCQQGLRYTSTAEHVAIRSKLQYRLELAQGAVGSVQIPVVEVDELPEGYDRS
Question: Which Kd [1] does the source give for B1 here?
Answer: 13 µM

Question: And the stoichiometry N [1]?
Answer: 0.83

Question: And the Kd [2]?
Answer: 780 nM

Question: And the stoichiometry N [2]?
Answer: 1.1

Question: What about the Kd [3] of the same binder?
Answer: 320 nM

Question: And the stoichiometry N [3]?
Answer: 0.93
